This passage reports Kd results from publication PMC13070007 (2025).

Some targets named below: 28K30K32R; KFNM; 30K32R56G; 30K32R113R.
Holding throughout (experiment): SPR
In general terms: In SPR one partner is held on a chip, and binding of the other changes the refractive index at the surface.

B1: TRBC1 protein (recombinant) (natural protein)
chain: DLNKVFPPEVAVFEPSEAEISHTQKATLVCLATGFFPDHVELSWWVNGKEVHSGVSTDPQPLKEQPALNDSRYCLSSRLRVSATFWQNPRNHFRCQVQFYGLSENDEWTQDRAKPVTQIVSAEAWGRADCGFTSVSYQQGVLSA
For orientation: Kd means the constant that tells how readily two partners part at equilibrium. Low readings indicate tighter binding, high ones weaker binding. For B1, the Kd with 28K30K32R was 952 nM; in the test with KFNM, 173 nM.

B2: TRBC2 protein (recombinant) (natural protein)
chain: DLKNVFPPKVAVFEPSEAEISHTQKATLVCLATGFYPDHVELSWWVNGKEVHSGVSTDPQPLKEQPALNDSRYCLSSRLRVSATFWQNPRNHFRCQVQFYGLSENDEWTQDRAKPVTQIVSAEAWGRADCGFTSESYQQGVLSA
As for B2, the Kd in the test with 28K30K32R stood at 30 nM; in the test with 30K32R56G, 46 nM; in the test with KFNM, 61 nM; in the test with 30K32R113R, 41 nM.
